According to patent US20070178572A1, “Protein crystal structure” (priority 2003, published 2007):
Positions count from the first letter of the chain named. Read-outs that look alike come from different tables or passages of the source.

B1: SET 7/9: human enzyme that specifically methylates lysine-4 of histone H3 (protein, UniProt Q8WTS6 1-366, looked up)
Histone-lysine …: MDSDDEMVEEAVEGHLDDDGLPHGFCTVTYSSTDRFEGNFVHGEKNGRGKFFFFDGSTLEGYYVDDALQGQGVYTYEDGGVLQGTYVDGELNGPAQEYDTDGRLIFKGQYKDNIRHGVCWIYYPDGGSLVGEVNEDGEMTGEKIAYVYPDERTALYGKFIDGEMIEGKLATLMSTEEGRPHFELMPGNSVYHFDKSTSSCISTNALLPDPYESERVYVAESLISSAGEGLFSKVAVGPNTVMSFYNGVRITHQEVDSRDWALNGNTLSLDEETVIDVPEPYNHVSKYCASLGHKANHSFTPNCIYDMFVHPRFGPIKCIRTLRAVEADEELTVAYGYDHSPPGKSGPEAPEWYQVELKAFQATQQK
B2: Y245>A: SET 7/9 histone methyltransferase with point mutation of Tyr-245 to alanine (protein, UniProt Q8WTS6 1-366, looked up, variant Y245A)
Histone-lysine …: B1 Histone-lysine … with Y245A

How the values were obtained:
H3 20mer peptide = assay: Analytical analysis of histone methylation (HPLC separation and MALDI of reaction products); assay type: biochemical, human; details: unmodified peptide and AdoMet, reaction driven essentially to completion
Procedure: The histone methyltransferase assay for analytical purposes was carried out under slightly different conditions than those described in Example 1.2. For analytical purposes the reaction was performed at 37° C. in 50 mM Tris-HCl, pH 8.0, 100 mM NaCl, 1 mM DTT, with 300 μM AdoMet (Fluka, Switzerland), 100 μM H3 20mer peptide ([…]), and with 1.5 μM enzyme. At desired time intervals an aliquot of the reaction was removed and quenched in 8 M urea and acidified with glacial acetic acid. The reaction products were separated by reverse phase HPLC (Jasco (UK) Ltd) on a Zorbax 300SB-C18 column (Rockland Technologies, Inc. USA) using a gradient from 0 to 40% acetonitrile in the presence of 0.05% trifluoroacetic acid at 55° C. Fractions from the peptide peak were analysed using a Reflex III MALDI time-of-flight mass spectrometer (Bruker Daltonik, GmbH, Germany) to obtain positive ion mass spectra.
The present inventors have further analysed the methylation reaction. Reaction mixtures were set up with unmodified peptide and AdoMet and conditions found where the reaction was driven essentially to completion. […] The reason for SET 7/9 acting as a mono-methyltransferase is readily apparent from the crystal structure now presented. The peptide used for crystallization was synthesised using mono-methylated lysine at position 4. […]

histone H3 peptide [1] = assay: HMTase activity measurements (histone methyltransferase assay, [methyl-3H] AdoMet, scintillation counting); assay type: biochemical, human
Procedure: The methyltransferase activity of SET7/9 and the various mutant constructs described in the text were determined in a reaction volume of 20 μl containing 3 μM AdoMet supplemented with [methyl-^3H] AdoMet (4 μCi) (Amersham Biosciences, UK) and […] purified methylase in reaction buffer (50 mM Tris pH 8.5, 100 mm NaCl, 1 mM EDTA, 1 mM DTT) with 50 μM histone peptide (see below). Following incubation at 37° C. for 60 min the reaction was vacuum blotted onto membrane (Hybond-C, Amersham Biosciences, UK) washed and activity measured by scintillation counting.

histone H3 peptide [2] = details: previously reported (Wilson et al, 2002); cited from earlier work

Row | Molecule | methylation state of reaction product (H3 20mer peptide) | HMTase activity (histone H3 peptide [1]; mono-methylated Lys-4 substrate) | HMTase activity (histone H3 peptide [1]; unmodified lysine substrate) | HMTase activity (histone H3 peptide [2])
1 | B1 | only mono-methylated peptide |  |  | 
2 | B2 |  | substantial activity | greatly reduced activity | dramatic reduction in HMTase activity
